Patent US20100015637A1 (AbbVie / Abbott, published 2010)

Legend:
[1] = biological target: CHO human PlGF-1 fragment (comprising amino acids 17-131; ATCC PTA-8540) (human) (UniProt P49763); assay: … sandwich, capture MAb264, detection pAb264; antigen 15 pg/mL
[2] = biological target: human PlGF-1 fragment (comprising amino acids 17-131) produced in human embryonic kidney cells (human) (UniProt P49763); assay: as above
[3] = biological target: human PlGF-1 comprising amino acids 1-137 produced in human embryonic kidney cells (human) (UniProt P49763); assay: as above
[4] = biological target: CHO human PlGF-1 comprising amino acids 1-137 (human PlGF-1-His (1-131), CHO 6305) (human) (UniProt P49763); assay: as above
[5] = biological target: recombinant human PlGF-1 (comprising amino acids 1-131) expressed in E. coli (R&D Systems) (human) (UniProt P49763); assay: as above
[6] = biological target: CHO human PlGF-1 fragment (comprising amino acids 17-131; ATCC PTA-8540) (human) (UniProt P49763); assay: … sandwich, capture MAb264, detection pAb264; antigen 750 pg/mL
[7] = biological target: human PlGF-1 fragment (comprising amino acids 17-131) produced in human embryonic kidney cells (human) (UniProt P49763); assay: as above
[8] = biological target: human PlGF-1 comprising amino acids 1-137 produced in human embryonic kidney cells (human) (UniProt P49763); assay: as above
[9] = biological target: CHO human PlGF-1 comprising amino acids 1-137 (human PlGF-1-His (1-131), CHO 6305) (human) (UniProt P49763); assay: as above
[10] = biological target: recombinant human PlGF-1 (comprising amino acids 1-131) expressed in E. coli (R&D Systems) (human) (UniProt P49763); assay: as above
[11] = biological target: CHO human PlGF-1 fragment (comprising amino acids 17-131; ATCC PTA-8540) (human) (UniProt P49763); assay: … sandwich, capture MAb264, detection pAb264; antigen 60 pg/mL
[12] = biological target: human PlGF-1 fragment (comprising amino acids 17-131) produced in human embryonic kidney cells (human) (UniProt P49763); assay: as above
[13] = biological target: human PlGF-1 comprising amino acids 1-137 produced in human embryonic kidney cells (human) (UniProt P49763); assay: as above
[14] = biological target: CHO human PlGF-1 comprising amino acids 1-137 (human PlGF-1-His (1-131), CHO 6305) (human) (UniProt P49763); assay: as above
[15] = biological target: recombinant human PlGF-1 (comprising amino acids 1-131) expressed in E. coli (R&D Systems) (human) (UniProt P49763); assay: as above
[16] = biological target: CHO human PlGF-1 fragment (comprising amino acids 17-131; ATCC PTA-8540) (human) (UniProt P49763); assay: … sandwich, capture MAb264, detection pAb264; antigen 1500 pg/mL
[17] = biological target: human PlGF-1 fragment (comprising amino acids 17-131) produced in human embryonic kidney cells (human) (UniProt P49763); assay: as above
[18] = biological target: human PlGF-1 comprising amino acids 1-137 produced in human embryonic kidney cells (human) (UniProt P49763); assay: as above
[19] = biological target: CHO human PlGF-1 comprising amino acids 1-137 (human PlGF-1-His (1-131), CHO 6305) (human) (UniProt P49763); assay: as above
[20] = biological target: recombinant human PlGF-1 (comprising amino acids 1-131) expressed in E. coli (R&D Systems) (human) (UniProt P49763); assay: as above
[21] = biological target: CHO human PlGF-1 fragment (comprising amino acids 17-131; ATCC PTA-8540) (human) (UniProt P49763); assay: … sandwich, capture MAb264, detection pAb264; antigen 0 pg/mL (blank)
[22] = biological target: human PlGF-1 fragment (comprising amino acids 17-131) produced in human embryonic kidney cells (human) (UniProt P49763); assay: as above
[23] = biological target: human PlGF-1 comprising amino acids 1-137 produced in human embryonic kidney cells (human) (UniProt P49763); assay: as above
[24] = biological target: CHO human PlGF-1 comprising amino acids 1-137 (human PlGF-1-His (1-131), CHO 6305) (human) (UniProt P49763); assay: as above
[25] = biological target: recombinant human PlGF-1 (comprising amino acids 1-131) expressed in E. coli (R&D Systems) (human) (UniProt P49763); assay: as above
[26] = biological target: CHO human PlGF-1 fragment (comprising amino acids 17-131; ATCC PTA-8540) (human) (UniProt P49763); assay: … sandwich, capture MAb264, detection pAb264; antigen 250 pg/mL
[27] = biological target: human PlGF-1 fragment (comprising amino acids 17-131) produced in human embryonic kidney cells (human) (UniProt P49763); assay: as above
[28] = biological target: human PlGF-1 comprising amino acids 1-137 produced in human embryonic kidney cells (human) (UniProt P49763); assay: as above
[29] = biological target: CHO human PlGF-1 comprising amino acids 1-137 (human PlGF-1-His (1-131), CHO 6305) (human) (UniProt P49763); assay: as above
[30] = biological target: recombinant human PlGF-1 (comprising amino acids 1-131) expressed in E. coli (R&D Systems) (human) (UniProt P49763); assay: as above
[31] = biological target: T1, CHO human PlGF-1 comprising amino acids 1-137 (human PlGF-1-His (1-131), CHO 6305) (human, UniProt P49763 19-221, N-glycans at N21 (completely glycosylated) and N89 (partially glycosylated)); assay: sandwich chemiluminescent EIA, 1-255-713 coated, acridinium 2-826-335 Fab'2 detection
T1 construct: Mature human PlGF-1 with 6xHis tag (137 amino acids); also called CHO (1-137)
T1 sequence: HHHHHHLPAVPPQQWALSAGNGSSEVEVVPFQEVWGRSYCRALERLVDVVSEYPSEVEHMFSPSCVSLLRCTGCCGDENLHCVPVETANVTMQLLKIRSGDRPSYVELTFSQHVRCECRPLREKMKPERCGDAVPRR
Experimental: After the capture reagent had been coated on the solid phase, it was removed and any unoccupied binding sites remaining on the plates were blocked using a 2% Fish Gel solution in PBS. The plates were washed and log 2 serial dilutions of recombinant antigen (rAg) lots, starting at 10,000 pg/mL in research phase […]® Human PlGF-1 calibrator diluent (which comprises a buffer containing MES, other salt, a protein blocker and an antimicrobial; Abbott Laboratories, Abbott Park, Ill.), were added to the plate for a one-hour incubation. Purified human PlGF-1 rAg (R&D Systems Minneapolis, Minn.) that was produced in E. coli was used as a positive control and purified NGAL) rAg was used as a negative control in this assay. […] Luminescence counts per second (LCPS) were measured on a Microbeta Jet instrument (Perkin Elmer, Waltham Mass.). The plate was loaded in the instrument where 100 μl of Architect Pre-trigger Solution (Abbott Laboratories, Abbott Park, Ill.) is added to each well, followed by 100 ul of Architect Trigger Solution is added before flash chemiluminescence is read and recorded. A calibration curve was generated with each rAg and recorded in the following graph.

Molecule: monoclonal antibody 264 (mouse anti-human PlGF-1, Clone 37203, R&D Systems Catalog Number MAB264)
- RLU [1]: 6870 RLU
- RLU [2]: 8590 RLU
- RLU [3]: 10400 RLU
- RLU [4]: 6370 RLU
- RLU [5]: 15600 RLU
- RLU [6]: 120000 RLU
- RLU [7]: 206000 RLU
- RLU [8]: 277000 RLU
- RLU [9]: 106000 RLU
- RLU [10]: 352000 RLU
- RLU [11]: 14800 RLU
- RLU [12]: 23500 RLU
- RLU [13]: 31300 RLU
- RLU [14]: 13800 RLU
- RLU [15]: 55000 RLU
- RLU [16]: 223000 RLU
- RLU [17]: 403000 RLU
- RLU [18]: 507000 RLU
- RLU [19]: 201000 RLU
- RLU [20]: 937000 RLU
- RLU [21]: 4680 RLU
- RLU [22]: 4880 RLU
- RLU [23]: 4750 RLU
- RLU [24]: 4650 RLU
- RLU [25]: 5110 RLU
- RLU [26]: 46000 RLU
- RLU [27]: 77900 RLU
- RLU [28]: 109000 RLU
- RLU [29]: 38900 RLU
- RLU [30]: 196000 RLU

B1: acridinium labeled Fab'2 fragment of human PlGF-1 antibody 2-826-335 (other)
VH: QVQLKQSGPGLVQPSQSLSITCTVSGFSLTTYGIHWVRQSPGKGLEWLGVMWSGGDTDYDAAFISRLSISKDNSKSQVFFKMNSLQANDTGIYYCARYRFYGMDYWGQGTSVTVSS
VL: AIQMTQSSSSFSVSLGDRVTITCKASEDIYNRFAWYQQKPGNAPRLLISGAASLEAGVPSRFSGSGSGQDYTLSITSLQTEDVATYYCQQYWSTPWTFGGGTKLEIKR
modifications: acridinium labeled
- binding result [31]: binds
